The record followed here is patent US20210198366A1 (NGM BIOPHARMACEUTICALS, published 2021).

The Kd is the free concentration of one partner at which half of the binding sites on the other are occupied at equilibrium, for simple one-to-one binding. The term IC50 denotes the midpoint of a concentration-inhibition curve.

Assay [1] has as its target T1, human B7-H7 expressed on the cell surface (human, UniProt Q9UM44 23-414).
T1 sequence: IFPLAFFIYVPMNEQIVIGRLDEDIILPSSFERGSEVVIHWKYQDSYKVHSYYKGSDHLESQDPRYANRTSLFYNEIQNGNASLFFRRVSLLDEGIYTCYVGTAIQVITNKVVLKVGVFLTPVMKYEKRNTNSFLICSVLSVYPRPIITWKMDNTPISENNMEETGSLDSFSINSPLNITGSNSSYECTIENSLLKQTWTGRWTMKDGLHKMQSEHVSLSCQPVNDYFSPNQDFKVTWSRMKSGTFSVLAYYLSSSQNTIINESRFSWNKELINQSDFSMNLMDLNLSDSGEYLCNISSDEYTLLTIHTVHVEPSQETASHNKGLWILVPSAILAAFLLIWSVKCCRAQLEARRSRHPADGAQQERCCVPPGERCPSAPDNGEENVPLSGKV
Kind of assay: cell-based or functional assay.

In assay [2] the target is T2, cynomolgus monkey B7-H7 expressed on HEK-293T cells (cynomolgus monkey).
T2 construct: also called cyno B7-H7; cells expressing cyno B7-H7
T2 chain: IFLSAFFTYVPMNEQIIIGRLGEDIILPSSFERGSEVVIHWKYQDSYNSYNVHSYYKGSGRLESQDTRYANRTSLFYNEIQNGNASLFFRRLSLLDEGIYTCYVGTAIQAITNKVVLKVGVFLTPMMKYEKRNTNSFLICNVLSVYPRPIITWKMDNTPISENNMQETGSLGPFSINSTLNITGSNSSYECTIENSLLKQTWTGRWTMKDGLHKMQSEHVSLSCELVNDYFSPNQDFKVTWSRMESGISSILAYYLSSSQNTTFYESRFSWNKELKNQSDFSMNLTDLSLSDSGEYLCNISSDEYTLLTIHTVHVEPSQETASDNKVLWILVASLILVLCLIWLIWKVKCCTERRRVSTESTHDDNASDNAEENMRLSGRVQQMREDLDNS
Kind of assay: FACS on HEK-293T cells expressing cyno B7-H7.

The target in assay [3] is T1, human B7-H7 expressed on the cell …. Kind of assay: FACS on HEK-293T cells expressing human B7-H7.
Assay [4] addresses T3, human B7-H7 (soluble analyte in SPR) (human, UniProt Q9UM44 23-344, limits assumed).
T3 sequence: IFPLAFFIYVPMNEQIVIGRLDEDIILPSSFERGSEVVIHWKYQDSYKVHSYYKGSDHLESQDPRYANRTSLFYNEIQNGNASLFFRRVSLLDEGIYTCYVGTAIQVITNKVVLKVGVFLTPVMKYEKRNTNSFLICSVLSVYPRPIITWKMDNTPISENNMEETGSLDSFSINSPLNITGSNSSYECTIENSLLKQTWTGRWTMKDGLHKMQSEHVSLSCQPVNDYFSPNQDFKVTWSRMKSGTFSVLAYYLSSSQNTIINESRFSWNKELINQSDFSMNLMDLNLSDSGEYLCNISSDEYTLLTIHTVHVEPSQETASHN
The assay is described as follows: SPR (Biacore), antibody captured by anti-Fc on CM5 chip, B7-H7 injected, 37 C. The procedure: The binding affinities of exemplary anti-B7-H7 antibodies to human B7-H7 and cyno B7-H7 were measured using SPR technology (Biacore system, GE Healthcare Life Sciences). Briefly, anti-Fc antibody (Sigma-Aldrich) was immobilized on all four flow cells of a CM5 chip using amine coupling reagents (GE Healthcare LifeSciences). Exemplary antibodies were captured on flow cells 2, 3, and 4 using flow cell 1 as a reference. Human B7-H7 or cyno B7-H7 (samples ranging from 0.62-40 nM) were injected at a flow rate of 50 μL/min at 37° C. Kinetic data were collected over time and fit using the simultaneous global fit equation to yield affinity constants (KD values) for each antibody.
Background: Surface plasmon resonance follows binding to a sensor surface in real time, without labels.

The target in assay [5] is T4, soluble human B7-H7-Fc fusion protein (extracellular region of human B7-H7, aa 23-344, and a human Fc … (human, UniProt Q9UM44 23-344)).
T4 construct: also called hB7-H7-Fc; soluble B7-H7
T4 sequence: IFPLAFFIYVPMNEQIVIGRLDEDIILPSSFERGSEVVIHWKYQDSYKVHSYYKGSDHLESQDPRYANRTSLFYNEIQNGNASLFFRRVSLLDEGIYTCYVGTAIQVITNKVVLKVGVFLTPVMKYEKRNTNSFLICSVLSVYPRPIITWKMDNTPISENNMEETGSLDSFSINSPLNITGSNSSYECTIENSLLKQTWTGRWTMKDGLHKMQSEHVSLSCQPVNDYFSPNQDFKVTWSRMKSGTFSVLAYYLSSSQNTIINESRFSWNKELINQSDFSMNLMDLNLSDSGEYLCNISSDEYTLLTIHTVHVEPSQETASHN
The assay is described as follows: FACS competition: antibody titrated against soluble hB7-H7-Fc binding to HEK-293 cells expressing human CD28H. As to the method: (§1) Exemplary anti-B7-H7 antibodies identified by ELISA and FACS were tested for their ability to block binding of soluble B7-H7 to receptors KIR3DL3 or CD28H in a FACS assay. HEK-293 cells were transiently transfected with a construct encoding (i) a membrane-bound KIR3DL3 protein or (ii) a membrane-bound CD28H protein. After 48 hours, transfected cells were suspended in ice cold PBS containing 1% FBS and 0.1% sodium azide and incubated on ice in the presence of […]/ml of soluble human B7-H7-Fc protein and antibodies 2D7, 1D3, 28F3, 16D5, 2F10, 5F7, 5B10, 5C9, or 3H6 (serially diluted from […] to 4.6 ng/ml). A second incubation with an anti-human Fc secondary antibody was performed to detect cells bound by the soluble B7-H7-Fc. The cells were analyzed on a BD FACSCalibur instrument (BD Biosciences) and the data was processed using FlowJo software. Calculated IC50s are shown Table 12.

In assay [6] the target is T4, soluble human B7-H7-Fc fusion protein …. Kind of assay: FACS competition: antibody titrated against soluble hB7-H7-Fc binding to HEK-293 cells expressing human KIR3DL3. As to the method:
as §1

B1: anti-B7-H7 antibody 5C9 (antibody, V domains shown)
VH: QVQLQQSGAELAKPGASVKMSCKASGYTFTSFWIHWIKQRPGQGLEWIGYIIPNTDYTEYNQKFKDKATFTADKSSSTAYMQLSSLTSEDSAVFYCARGLRGAYYFDYWGQGTTLTVSS
VL: DIVLTQSPASLAVSLGLRATISCRSSQSVSTSTNGYMHWYQQKPGQPPKLLIMYASNLESGVPARFSGSGSGTDFTLNIHPVDEEDTATYYCQHSWVLPYTFGGGTKLEIK
notes: Mouse hybridoma antibody
B1: the “Induction of NK-92 cytotoxicity EC50” value in assay [1] was 1.6 nM. In addition, the “Induction of NK-92 cytotoxicity Relative efficacy” value in assay [1] was 155%. Also, the MFI in assay [2] was 176 MFI; in assay [3] it was 185 MFI. In assay [4], this molecule gave a Kd of 0.8 nM. The IC50 in assay [5] amounted to 3.4 nM; in assay [6] it was 3 nM.

B2: anti-B7-H7 antibody 28F5 (antibody, V domains shown)
VH: QVQLKESGPGLVAPSQSLSITCTVSGFSLTGYGVNWVRQPPGKGLEWLGVIWGDGSTDYNSVLKSRLSISKDNSKSQVFLKMNSLQTDDTARYYCAREATEYLYWYFDVWGAGTTVTVSS
VL: DIVLTQSPASLAVSLGQRATISCRASESVEYYGSSLMQWYQQKPGQPPKLLIFAASNVESGVPPRFSGSGSGTDFNLNIHPVDEDDIAMYFCQQGRRVPWTFGGGTKLEIK
notes: Mouse hybridoma antibody
Turning to B2, the “Induction of NK-92 cytotoxicity EC50” value in assay [1] is 0.5 nM. Moreover, the “Induction of NK-92 cytotoxicity Relative efficacy” value in assay [1] came out at 150%. Besides, the MFI in assay [2] was found to be 165 MFI; in assay [3], 152 MFI. The molecule further displayed a Kd in assay [4] of 0.4 nM. For the same molecule, the IC50 in assay [5] stood at 2.7 nM; in assay [6], 2.6 nM.

B3: anti-B7-H7 antibody 5B10 (antibody, V domains shown)
VH: EVQLQQSGPELEKPGASVKISCKASGYSFTGYNMNWVKQSNGKSLEWIGNIDPYSGGSTYNQKFKGKATLTVDKSSSTASLQLKSLTSEDSSVYYCARSFYDAPYLTYWGQGTLVTVSA
VL: DIQMTQSPTSLSASVGETVTITCRASENIFIYLAWYQQKQGKSPQLLVFNAKTLAEGVPSRFSGSGSGTQFSLKINSLRPEDFGTYYCQHHYGTPPTFGGGTKLEV
notes: Mouse hybridoma antibody
On to B3, for which, in assay [1], the “Induction of NK-92 cytotoxicity EC50” value is 1.6 nM. The “Induction of NK-92 cytotoxicity Relative efficacy” value in assay [1] was found to be 148%. Also, the MFI in assay [2] amounted to 93 MFI; in assay [3], 82 MFI. This molecule showed a Kd in assay [4] of 4 nM. Further, the IC50 came out at 3.4 nM in assay [5] and 2.4 nM in assay [6].

B4: anti-B7-H7 antibody 1D3 (antibody, V domains shown)
VH: EVQLQQSGPELEKPGASVKISCKASGYSFTGYNMNWVKESNGRSLEWIGNIDPYSGGSTYNQKFKGKATMTVDKSSSTAYMQLKSLTSEDSAVYYCARSVYDAPWLAHWGQGTLVTVSA
VL: DIQMTQSPASLSASVGETVTITCRASENIYIYLAWYQQKQGKSPQLLVYNAKTLAEGVPSRFSGSGSGTQFSLKINRLQPEDFGNYYCQHHYGTPPTFGGGTKLEIK
notes: Mouse hybridoma antibody
With B4, the “Induction of NK-92 cytotoxicity EC50” value in assay [1] was 1.2 nM. Moreover, the “Induction of NK-92 cytotoxicity Relative efficacy” value in assay [1] was 136%. Moreover, the MFI in assay [2] turned out to be 214 MFI; in assay [3], 247 MFI. The molecule further registered a Kd in assay [4] of 0.9 nM. Moreover, the IC50 in assay [5] amounted to 8 nM; in assay [6], 5 nM.

B5: anti-B7-H7 antibody 2F10 (antibody, V domains shown)
VH: EIQLQQTGPELVKPGASLRISCKASGYSFTDYIIVWVKQNQGKNLDWIEKINPYYGTTTYNLRFEDKATLTVNKSSTTAYMQLNSLTSEDSAVYYCARWDYVSTLFAMDYWGQGTSITVSS
VL: DIVMTQSHKVMSTSVGDRVSIICKASQDVGTAVAWYQQKPGQSPKLLIYWASTRHTGVPDRFTGSGSGTDFILTITNVQSENLANYFCQQYKRYYTFGGGTKLEIK
notes: Mouse hybridoma antibody
For B5, the “Induction of NK-92 cytotoxicity EC50” value in assay [1] stood at 0.9 nM. In assay [1], the “Induction of NK-92 cytotoxicity Relative efficacy” value came out at 146%. For the same molecule, the MFI in assay [2] came to 134 MFI; in assay [3], 101 MFI. This molecule also displayed a Kd in assay [4] of 0.3 nM. For the same molecule, the IC50 in assay [5] worked out at 3 nM; in assay [6], 2.5 nM.

B6: anti-B7-H7 antibody 16D5 (antibody, V domains shown)
VH: QVQLQQSAAELARPGASVKMSCKASGYTFTTYTMHWVKQRPGQGLEWIGYINPSRGYSDYSQKFQGKSTLTTDKSSNTAYIQLTSLTSEDSAVYFCARGGYDFDYWGQGTTLTVSS
VL: DIVMTQSHKFMSTSVGDRVSITCKASQDVGTAVAWYQQKPGQSPKLLLYWASTRHTGVPDRFTGSGSGTDYTLTISSVQAEDLALYHCQQHFITPYTFGGGTKLEIK
notes: Mouse hybridoma antibody
For B6, in assay [1], the “Induction of NK-92 cytotoxicity EC50” value was 0.5 nM. The “Induction of NK-92 cytotoxicity Relative efficacy” value in assay [1] came to 135%. In addition, the MFI in assay [2] worked out at 199 MFI; in assay [3], 165 MFI. This molecule also registered a Kd in assay [4] of 0.2 nM. The IC50 came out at 2 nM in assay [5] and 1.7 nM in assay [6].

B7: anti-B7-H7 antibody 5F7 (antibody, V domains shown)
VH: QEQLQQPGTELVKPGASVKISCKASGYTFSSYSMHWVKLTPGQGLEWMGTIYPGNENTSYNQKFKGKATLTADKSSSTAYMQLSSLTSEDSAVYYCARGGYYFDYWGQGTTLTVSS
VL: DIVMTQSHKFLSTSVGDRVSITCKASQDVSTAVAWYQQKPGQSPKLLIYWASTRHTGVSDRFTGSGSGTDFTLTISSVQAEDLALYYCQQHFDIPYWFGGGTKLEIK
notes: Mouse hybridoma antibody
For B7, the “Induction of NK-92 cytotoxicity EC50” value in assay [1] is 0.6 nM. In assay [1], the “Induction of NK-92 cytotoxicity Relative efficacy” value is 151%. Further, the figures for the MFI in assay [2] and in assay [3] were 195 MFI and 163 MFI, respectively. This molecule showed a Kd in assay [4] of 0.6 nM. The IC50 in assay [5] worked out at 1.8 nM; in assay [6], 1.6 nM.

B8: anti-B7-H7 antibody 3H6 (antibody, V domains shown)
VH: EVQLQQSGPELVKPGASVKISCKTSGYTFTEYTMHWVKQSHGKSLEWIGGINPNNGGAPYNQKFKGKATLTVDKSSSTAYMELRSLTSEDSAVYYCARGGYYFDYWGQGTTLTVSS
VL: DIVMTQSHKFMSTSVGDRVSITCKASQDVSTAVAWYQQKSGQSPKLLIYWASTRHTGVPDRFTGSGSGTDYTLTISSVQAEDLALYYCQQHYDTPFTFGGGTKLEIK
notes: Mouse hybridoma antibody
For the molecule B8, the “Induction of NK-92 cytotoxicity EC50” value in assay [1] was determined as 0.8 nM. In addition, the “Induction of NK-92 cytotoxicity Relative efficacy” value in assay [1] was found to be 105%. In addition, the MFI was determined as 568 MFI in assay [2] and 41 MFI in assay [3]. Moreover, the dissociation constant (Kd) in assay [4] turned out to be 0.8 nM. For the same molecule, the 50% inhibitory concentration (IC50) is 2.5 nM in assay [5] and 2.7 nM in assay [6].
